Experiment [1] has as its target High-density lipoprotein (HDL) particles (human) (UniProt P02647). The experiment is described as follows: cell-based or functional assay.
The target of experiment [2] is Low-density lipoprotein (LDL) particles (human) (UniProt P04114). The experiment is described as follows: negative-staining EM, HDL•CETP•LDL ternary complexes.
For experiment [3] the target is unchanged. The experiment can be described thus: negative-staining EM, count of LDL•CETP complexes without antibody.

B1: Recombinant human CETP (cholesteryl ester transfer protein) (protein)
chain: CSKGTSHEAGIVCRITKPALLVLNHETAKVIQTAFQRASYPDITGEKAMMLLGQVKYGLHNIQISHLSIASSQVELVEAKSIDVSIQNVSVVFKGTLKYGYTTAWWLGIDQSIDFEIDSAIDLQINTQLTCDSGRVRTDAPDCYLSFHKLLLHLQGEREPGWIKQLFTNFISFTLKLVLKGQICKEINVISNIMADFVQTRAASILSDGDIGVDISLTGDPVITASYLESHHKGHFIYKNVSEDLPLPTFSPTLLGDSRMLYFWFSERVFHSLAKVAFQDGRLMLSLMGDEFKAVLETWGFNTNQEIFQEVVGGFPSQAQVTVHCLKMPKISCQNKGVVVNSSVMVKFLFPRPDQQHSVAYTFEEDIVTTVQASYSKKKLFLSLLDFQITPKTVSNLTESSSESVQSFLQSMITAVGIPEVMSRLEVVFTALMNSKGVSLFDIINPEIITRDGFLLLQMDFGFPEHLLVDFLQSLS
As for B1, the decrease of mean HDL particle size after 4 hours (NS-EM), HDL/CETP/LDL co-incubation without antibody in experiment [1] worked out at 25.8%. This molecule gave a percent of LDL particles connected to HDL particles by a CETP bridge in experiment [2] of 25%. Further, in experiment [3], the percentage of binary complexes (LDL•CETP) without H300 worked out at 38%.

Values taken from US20140328851A1.
